Reference: patent US20260226179A1 (MAB DESIGNS, published 2026)
Values joined by “and” are separate entries in the source; they are usually repeats but may differ in a detail not shown here. Equal entries are not always repeated.

T1: human soluble IL-6R (human, UniProt P08887 20-357)
T1 sequence: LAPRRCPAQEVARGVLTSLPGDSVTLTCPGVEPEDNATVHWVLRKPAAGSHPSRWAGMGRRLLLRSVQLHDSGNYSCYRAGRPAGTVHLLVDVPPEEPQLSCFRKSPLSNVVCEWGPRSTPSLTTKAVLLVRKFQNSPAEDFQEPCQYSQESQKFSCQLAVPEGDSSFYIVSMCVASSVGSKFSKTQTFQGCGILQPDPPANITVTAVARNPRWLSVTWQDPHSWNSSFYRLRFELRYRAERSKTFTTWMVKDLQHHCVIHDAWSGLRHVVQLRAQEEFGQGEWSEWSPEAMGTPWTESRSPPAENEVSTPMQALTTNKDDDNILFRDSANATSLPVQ

T2: human membrane-bound IL-6R subunit alpha (human, UniProt P08887 20-468)
T2 sequence: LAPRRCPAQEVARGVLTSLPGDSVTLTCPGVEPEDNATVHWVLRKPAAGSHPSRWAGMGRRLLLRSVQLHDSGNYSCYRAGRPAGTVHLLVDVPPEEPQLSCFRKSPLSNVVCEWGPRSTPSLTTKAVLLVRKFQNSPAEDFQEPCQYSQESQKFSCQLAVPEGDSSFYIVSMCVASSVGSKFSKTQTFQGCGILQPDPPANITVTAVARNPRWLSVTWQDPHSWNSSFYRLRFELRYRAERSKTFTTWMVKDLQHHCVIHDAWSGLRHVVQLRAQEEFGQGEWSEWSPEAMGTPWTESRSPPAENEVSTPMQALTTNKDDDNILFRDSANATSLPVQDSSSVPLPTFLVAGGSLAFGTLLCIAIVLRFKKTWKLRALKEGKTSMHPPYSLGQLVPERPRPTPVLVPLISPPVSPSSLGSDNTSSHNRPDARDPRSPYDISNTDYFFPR

T3: human soluble IL-6R (human, UniProt P08887 20-357, limits assumed)
T3 sequence: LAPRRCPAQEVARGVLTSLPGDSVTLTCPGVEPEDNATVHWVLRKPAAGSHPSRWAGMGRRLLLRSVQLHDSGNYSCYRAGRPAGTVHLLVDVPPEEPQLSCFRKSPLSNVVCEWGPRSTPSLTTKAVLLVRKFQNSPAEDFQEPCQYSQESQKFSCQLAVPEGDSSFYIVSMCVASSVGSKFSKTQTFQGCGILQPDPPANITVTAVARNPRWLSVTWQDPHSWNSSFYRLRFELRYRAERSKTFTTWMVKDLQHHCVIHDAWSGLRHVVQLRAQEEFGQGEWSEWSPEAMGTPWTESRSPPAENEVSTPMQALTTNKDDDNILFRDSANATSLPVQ

T4: human membrane-bound IL-6R subunit alpha (human, UniProt P08887 20-468)
T4 sequence: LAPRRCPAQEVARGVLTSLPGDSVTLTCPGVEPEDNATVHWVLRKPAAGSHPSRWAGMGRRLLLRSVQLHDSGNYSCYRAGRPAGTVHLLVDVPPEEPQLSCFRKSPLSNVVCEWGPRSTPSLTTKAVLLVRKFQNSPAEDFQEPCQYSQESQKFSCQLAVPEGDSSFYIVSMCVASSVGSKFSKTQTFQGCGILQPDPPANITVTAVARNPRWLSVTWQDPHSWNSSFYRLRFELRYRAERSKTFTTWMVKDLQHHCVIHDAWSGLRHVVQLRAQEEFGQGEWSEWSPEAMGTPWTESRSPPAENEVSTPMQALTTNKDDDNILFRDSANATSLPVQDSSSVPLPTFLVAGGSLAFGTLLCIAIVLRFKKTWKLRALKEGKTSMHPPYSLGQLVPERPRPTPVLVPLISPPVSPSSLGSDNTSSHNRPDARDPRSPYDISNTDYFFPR

T5: mouse membrane-bound IL-6R subunit alpha (mouse, UniProt P22272 20-460)
T5 sequence: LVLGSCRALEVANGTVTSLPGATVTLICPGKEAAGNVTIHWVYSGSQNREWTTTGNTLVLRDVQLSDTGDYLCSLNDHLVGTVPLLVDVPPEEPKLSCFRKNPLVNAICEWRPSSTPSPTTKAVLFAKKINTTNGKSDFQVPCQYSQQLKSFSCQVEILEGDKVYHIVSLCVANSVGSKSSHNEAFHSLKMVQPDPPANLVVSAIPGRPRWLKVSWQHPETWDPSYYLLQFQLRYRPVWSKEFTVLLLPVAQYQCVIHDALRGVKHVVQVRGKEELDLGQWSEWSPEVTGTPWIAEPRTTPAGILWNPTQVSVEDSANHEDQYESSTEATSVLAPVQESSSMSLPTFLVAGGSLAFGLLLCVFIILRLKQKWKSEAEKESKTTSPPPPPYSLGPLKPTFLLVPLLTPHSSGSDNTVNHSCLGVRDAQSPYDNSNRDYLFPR

T6: murine soluble IL-6R (mouse, UniProt P22272 20-347, limits assumed)
T6 sequence: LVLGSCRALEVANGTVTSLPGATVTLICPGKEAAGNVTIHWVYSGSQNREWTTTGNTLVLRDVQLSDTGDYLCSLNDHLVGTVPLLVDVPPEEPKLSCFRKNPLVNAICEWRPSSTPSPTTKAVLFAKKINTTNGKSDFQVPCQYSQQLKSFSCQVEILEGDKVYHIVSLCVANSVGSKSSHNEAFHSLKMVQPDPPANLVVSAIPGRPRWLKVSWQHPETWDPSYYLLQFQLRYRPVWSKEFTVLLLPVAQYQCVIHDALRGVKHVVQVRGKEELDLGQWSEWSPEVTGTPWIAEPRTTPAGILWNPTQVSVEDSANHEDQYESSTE


Experiments:
Test in all cases: cell-based or functional assay
human soluble IL-6R [1] = target: T1, human soluble IL-6R
[2] = target: T2, human membrane-bound IL-6R subunit alpha
human soluble IL-6R [3] = target: T1, human soluble IL-6R; remark: listed apart in the source
human soluble IL-6R [4] = target: T1, human soluble IL-6R; remark: listed apart in the source
[5] = target: T2, human membrane-bound IL-6R subunit alpha; remark: listed apart in the source
human soluble IL-6R [6] = target: T3, human soluble IL-6R
[7] = target: Hyper-IL-6 (recombinant fusion protein consisting of IL-6 and soluble IL-6R)
[8] = target: T4, human membrane-bound IL-6R subunit alpha; remark: listed apart in the source
[9] = target: T4, human membrane-bound IL-6R subunit alpha; remark: listed apart in the source
[10] = target: T4, human membrane-bound IL-6R subunit alpha; remark: listed apart in the source
[11] = target: T5, mouse membrane-bound IL-6R subunit alpha
murine soluble IL-6R = target: T6, murine soluble IL-6R
[12] = target: T5, mouse membrane-bound IL-6R subunit alpha; remark: listed apart in the source
human soluble IL-6R [13] = target: T3, human soluble IL-6R; remark: listed apart in the source
[14] = target: T4, human membrane-bound IL-6R subunit alpha; remark: listed apart in the source
[15] = target: T4, human membrane-bound IL-6R subunit alpha; remark: listed apart in the source

Binder	Proliferation in % (Ba/F3_gp130 cells, IL-6 + sIL-6R = 100%; IL-6 trans signalling; 1% PE) (human soluble IL-6R [1]) [%]	Proliferation in % (Ba/F3_gp130_IL-6R cells, IL-6 + sIL-6R = 100%; combined IL-6 classical and trans signalling; 1% PE) [2] [%]	Classical:trans signalling ratio proliferation (human soluble IL-6R [3]) [ratio]	Classical:trans signalling ratio intracellular signalling (human soluble IL-6R [4]) [ratio]	Residual STAT3 phosphorylation in HEK293 (IL-6 + sIL-6R; IL-6 trans signalling; 1% PE) (human soluble IL-6R [4]) [%]	Residual STAT3 phosphorylation in HEK293_IL-6R (IL-6 + sIL-6R; combined classical and trans signalling; 1% PE) [5] [%]	IC50 of inhibition of proliferation of Ba/F3_gp130 cells induced by 10 ng/ml IL-6 and 200 ng/ml sIL-6R (human soluble IL-6R [6])	IC50 of inhibition of proliferation of Ba/F3_gp130 cells induced by 28 ng/ml Hy-IL-6 [7]	Proliferation in % of Ba/F3_gp130_IL-6R cells (10 ng/ml IL-6 = 100%), IgG at 1 µg/ml [8] [%]	Proliferation in % of Ba/F3_gp130_IL-6R cells (10 ng/ml IL-6 = 100%), IgG at 10 µg/ml [8] [%]	Proliferation in % of Ba/F3_gp130_IL-6R cells with 10 ng/ml IL-6 and 200 ng/ml sIL-6R (mixed signalling), IgG at 1 µg/ml [9] [%]	Proliferation in % of Ba/F3_gp130_IL-6R cells with 10 ng/ml IL-6 and 200 ng/ml sIL-6R (mixed signalling), IgG at 10 µg/ml [9] [%]	IC50 for inhibition of IL-6 classical signalling-induced proliferation [10] [nM]	Proliferation in % of Ba/F3_gp130_muIL-6R cells (10 ng/ml murine IL-6 = 100%), IgG at 10 µg/ml [11] [%]	Proliferation in % of Ba/F3_gp130 cells (10 ng/ml murine IL-6 + 200 ng/ml murine soluble IL-6R = 100%), IgG at 10 µg/ml (murine soluble IL-6R) [%]	Proliferation in % of Ba/F3_gp130_muIL-6R cells (10 ng/ml murine IL-6 + 200 ng/ml murine soluble IL-6R = 100%, mixed signalling), IgG at 10 µg/ml [12] [%]	STAT3 phosphorylation in % in HEK293 cells (10 ng/ml IL-6 + 200 ng/ml sIL-6R for 30 min = 100%), IgG at 1 µg/ml (human soluble IL-6R [13]) [%]	STAT3 phosphorylation in % in HEK293_IL-6R cells (10 ng/ml IL-6 for 30 min = 100%), IgG at 1 µg/ml [14] [%]	STAT3 phosphorylation in % in HEK293_IL-6R cells (10 ng/ml IL-6 + 200 ng/ml sIL-6R = 100%, mixed signalling), IgG at 1 µg/ml [15] [%]
candidate anti-IL-6R Fab clone 09 (Fab, V domains shown) VH: EVQLVESGGDLVQPGGSLKLSCAASGFTFSNYGMSWVRQTPDKRLELVAAINSNGGSTYYPDSVKGRFTISRDNAKNTLYLQMSSLKSEDTAMYYCARDGNYVSDYWGQGTTLTVSS VL: DIVLTQSPASLAVSLGQRATISCRASESVDSYGNSFMHWYQQKPGQPPKLLIYLASNLESGVPARFSGSGSRTDFTLTIDPVEADDAATYYCQQNNEDPWTFGGGTKLEIK	69.8	91.6	1.3	2.2	38	83	–	–	–	–	–	–	–	–	–	–	–	–	–
candidate anti-IL-6R Fab clone 12 (Fab, V domains shown) VH: EVKLMESGGGLVQPGGSLKLSCAASGFTFSNYGMSWVRQTPDKRLEWVANINSNGGSTYYPDSVKGRFTISRDNAQNTLYLQMSSLKSEDTAMYYCTRDGNFVSDYWGQGTTLTVSS VL: DIVLTQSPASLAVSPGQRATISCRASESVDSYGNSFMNWYQQKPGQPPKLLIYLASNLESGVPARFSGSGSRTDFTLTIDPVEADDAATYYCQQNNEDPYTFGGGTKLEIK	47.9	61.6	1.3	2.1	42	90	–	–	–	–	–	–	–	–	–	–	–	–	–
candidate anti-IL-6R Fab clone 19 (Fab, V domains shown) VH: EVKLMESGGGLVQPGGSLKLSCAASGFTFSNYGMSWVRQTPDKRLELVAIMNSKGGSTYYPDSVMGRFTISRDNAKNTLYLQMSSLKSEDTAMYYCARDGYYTMDYWGQGTSVTVSS VL: DIVLTQSPASLAVSLGQRATISCRASKSVDSFGNSFMHWYQQKPGQSPRLLIFLASNLESGVPARFSGSGSRTDFTLTIDPVEADDAATYYCQQNNEDPYTFGGGTKLEIK	53.3	73.3	1.4	3	24	72	–	–	–	–	–	–	–	–	–	–	–	–	–
anti-IL-6R IgG antibody 12 (C12 antibody, Fab chimerized with human IgG1) (antibody, V domains shown) VH: EVKLMESGGGLVQPGGSLKLSCAASGFTFSNYGMSWVRQTPDKRLEWVANINSNGGSTYYPDSVKGRFTISRDNAQNTLYLQMSSLKSEDTAMYYCTRDGNFVSDYWGQGTTLTVSS VL: DIVLTQSPASLAVSPGQRATISCRASESVDSYGNSFMNWYQQKPGQPPKLLIYLASNLESGVPARFSGSGSRTDFTLTIDPVEADDAATYYCQQNNEDPYTFGGGTKLEIK	–	–	–	–	–	–	863 ng/ml and 5.8 nM	748 ng/ml and 5 nM	94.3	92.2	94.3	87.6	> 53	102	106	114	4	97.8	99.9
anti-IL-6R IgG antibody 20 (C20 antibody, Fab chimerized with human IgG1) (antibody, V domains shown) VH: EVKLMESGGGLVQPGGSLKLSCAASGFTFSNYGMSWVRQTPDKRLELVAIINSNGGSTYYPDSVKGRFTISRDNAKNTLYLQMSSLKSEDTAIYYCARDGNFVSDYWGQGTTLTVSS VL: DIVLTQSPASLAVSLGQRATISCRASESVDSYGNRFLNWYQQKPGQPPKLLIYLASNLESGVPARFSGSGSRTDFTLTIDPVEADDAATYYCQQNNEDPYTFGGGTKLEIK	–	–	–	–	–	–	531 ng/ml and 3.5 nM	304 ng/ml and 2 nM	92.6	87.6	94.7	88.6	> 53	108	86.2	114	0.2	86.9	88.1
anti-IL-6R IgG antibody 19 (C19 antibody, Fab chimerized with human IgG1) (antibody, V domains shown) VH: EVKLMESGGGLVQPGGSLKLSCAASGFTFSNYGMSWVRQTPDKRLELVAIMNSKGGSTYYPDSVMGRFTISRDNAKNTLYLQMSSLKSEDTAMYYCARDGYYTMDYWGQGTSVTVSS VL: DIVLTQSPASLAVSLGQRATISCRASKSVDSFGNSFMHWYQQKPGQSPRLLIFLASNLESGVPARFSGSGSRTDFTLTIDPVEADDAATYYCQQNNEDPYTFGGGTKLEIK	–	–	–	–	–	–	1210 ng/ml and 8 nM	755 ng/ml and 5 nM	100	93.1	104	95.2	> 53	105	108	116	6.9	89.5	98.4
